Test results taken from US9752119B2, “Substantially pure human retinal progenitor, forebrain progenitor, and retinal pigment epithelium cell cultures and methods of making the same” (Wisconsin Alumni Research Foundation, priority 2009, dated 2017).

How the values were obtained:
human ESC = experiment: Eye field specification from differentiating human ESC: Pax6 and Rx gene expression (RT-PCR/qPCR) and neuroepithelial colony formation; format: cell-based; conditions: for appearance of neuroepithelial colonies / expression of Pax6 and Rx: Wnt3A and BMP4 added together (100 ng/ml) over the first 10 days of differentiation; for appearance of neuroepithelial colonies: morphology at day 10; for expression of Pax6 and Rx: qPCR
Procedure: (1) Making human ESC aggregates: Human ESC were grown on irradiated MEFs to approximately 80% confluence in a 6-well plate. Upon reaching 80% confluence, the human ESC medium was aspirated off and 1 ml of dispase (1 mg/ml, Gibco #17105-041) solution was added to each well. After 5 minutes, the cells were examined for curling of human ESC colony edges, indicative of the colonies beginning to lift off of the plate. If noticeable curling was evident, the dispase solution was aspirated off of the plate and replaced with 1 ml of DMEM/F12 per well. The human ESC colonies were mechanically lifted from the plate by pipetting a few times with a 10 ml pipette. When all colonies were detached, the cells were transferred to a 15 ml conical tube and allowed to settle by gravity. After the aggregates had settled (˜5 minutes), the supernatant was aspirated and replaced with 10 ml of Embryoid Body (EB) medium, which contained DMEM/F12 (1:1) (Gibco #11330-065), 20% knockout serum replacement (Gibco #10828-028), 0.1 mM β-mercaptoethanol, 1 mM L-glutamine (Gibco #25030-081) and 1% MEM nonessential amino acids (Gibco #11140-050). The pellet of cells was resuspended by repeated pipetting 2-3 times with a 10 ml pipette, just enough to separate the individual aggregates while minimizing their dissociation. Aggregates were approximately 400 μm in diameter. These aggregates were then transferred to a T25 flask and placed in the incubator. The next day, the aggregates formed floating, sphere-like structures. (If significant attachment of human ESC and/or residual MEF cells was observed, the unattached aggregates were transferred to a new flask.) These cells were fed with fresh EB medium every day for the first 4 days.
(2) Differentiating to anterior neuroepithelial fate: The aggregates were then collected by settling in a 15 ml conical tube and washed once with 10 ml of DMEM/F12. Upon resettlement of the aggregates, the supernatant was removed and the aggregates were re-suspended in 10 ml of Neural Induction Medium (NIM) and transferred to a new T25 flask. NIM included DMEM/F12 (1:1) (Gibco #11330-065), 1% N2 supplement (Gibco #17502-048), 1% MEM nonessential amino acids (Gibco #11140-050), and 2 μg/ml heparin (Sigma #H-3149). Two days later, a 6-well plate was coated with laminin (20 μg/ml diluted in DMEM) and the coated plate was left in the incubator overnight. By this time, aggregates had become brighter and acquired clearly defined edges. The next day, approximately 50 aggregates were plated in each well of a 6 well plate. An additional 2 ml of fresh NIM was added to each well. The cells were then placed in the incubator, making sure the cells were distributed evenly in the plate by gently shaking the plate back and forth as well as side-to-side a few times. Within the first couple of days (by a total of 9 days), most aggregates attached to the laminin-coated surface. […]
RT-PCR experiments were done as follows to check gene expression: Total RNA was isolated from cell cultures from various stages of differentiation using the RNAeasy® kit (Qiagen) and treated with DNAse I. Reverse transcription was performed with the Superscript III RT-PCR kit (Invitrogen). […] For quantitative RT-PCR (qPCR), reactions were performed with Sybr Green Supermix (Applied Biosystems) and the Opticon 2 DNA Engine and Opticon Monitor 2.02 software (MJ Research). […]

human ESC cultures = experiment: Mitf and Chx10 gene expression (qPCR) in human ESC cultures treated during optic vesicle and optic cup stages; format: cell-based; conditions: SU5402 added days 16-40, measured at day 40
Procedure: The columnar rosette cells found in the center of these colonies were denser than those cells in the periphery, so they were easily dislodged by this pipetting technique, leaving the non-rosette cells attached to the plate. We took care not to break up the lifted colonies during this step. Detached colonies were collected in a 15 ml conical tube and spun in a centrifuge at 600 rpm for 1 minute to effectively pellet the detached colonies while leaving most single cells in suspension in the culture medium. The supernatant was then aspirated from the tube and the clusters were re-suspended in 10 ml of Retinal Differentiation Medium (RDM) and transferred to a new T25 flask. RDM included DMEM/F12 (3:1) supplemented with 2% B27. […] Within 3-5 days after detachment of the cells (19th-21st day of the differentiation), neurospheres readily adopted one of two major appearances. […]
RT-PCR experiments were done as follows to check gene expression: Total RNA was isolated from cell cultures from various stages of differentiation using the RNAeasy® kit (Qiagen) and treated with DNAse I. Reverse transcription was performed with the Superscript III RT-PCR kit (Invitrogen). […] For quantitative RT-PCR (qPCR), reactions were performed with Sybr Green Supermix (Applied Biosystems) and the Opticon 2 DNA Engine and Opticon Monitor 2.02 software (MJ Research). […] Quantitative RT-PCR primers were run for 40 cycles.

[1] = system: hiPSC-derived vesicular neurospheres; experiment: RPE specification from hiPSC-derived vesicular neurospheres in the presence of Activin (bright field microscopy, qPCR); format: cell-based, human
Procedure: RT-PCR experiments were done as follows to check gene expression: Total RNA was isolated from cell cultures from various stages of differentiation using the RNAeasy® kit (Qiagen) and treated with DNAse I. Reverse transcription was performed with the Superscript III RT-PCR kit (Invitrogen). PCR was performed with GoTaq PCR master mix (Promega) and subsequent PCR products were run on 2% agarose gels. For quantitative RT-PCR (qPCR), reactions were performed with Sybr Green Supermix (Applied Biosystems) and the Opticon 2 DNA Engine and Opticon Monitor 2.02 software (MJ Research). All primer sets listed were run for 30 cycles at an annealing temperature of 60° C. unless otherwise noted. Quantitative RT-PCR primers were run for 40 cycles.
Activin signaling has previously been implicated in this cell fate determination and as such, we sought to determine if Activin could influence these cells to adopt an RPE fate. […] Based on this feature, these aggregates could be manually isolated to generate highly enriched populations of RPE. When plated onto a laminin-coated substrate and in the presence of the mitogens FGF2 and EGF, these cells were capable of proliferation and outgrowth from the aggregate (FIG. 18D). […] Further maturation of these treated cells confirms that Activin signaling plays a role in the acquisition of an RPE fate at the expense of the neural retina, as Activin-treated cultures expressed RPE-specific genes such as RPE65 at higher levels than the untreated cells, whereas untreated cells expressed higher levels of genes associated with the neural retina including Brn3A (FIG. 18E-F).

hiPSCs = experiment: Neural/retinal specification of hiPSCs after addition of BMP and Wnt inhibitors (immunocytochemistry, FACS); format: cell-based, human; conditions: for expression of Pax6: recombinant Dkk1 and Noggin added together from 2-4 days of differentiation, immunocytochemistry; for expression of Chx10: treatment with Dkk1 and Noggin together, after 20 days of differentiation, FACS
Procedure: Immunocytochemistry was done as follows to check protein expression: human ESC aggregates or neurospheres were plated onto poly-ornithine- and laminin-coated coverslips overnight to allow for attachment, and then fixed with 4% paraformaldehyde. Cells were then permeabilized in 0.2% Triton X-100 for 10 minutes. For Mitf immunocytochemistry, cells were incubated in ice-cold 90% methanol for 10 minutes as an additional permeabilization step. Labeled cells were visualized with either Alexafluor 488- or Cy3-conjugated secondary antibodies, and nuclei were counterstained with either Hoechst or To-Pro-3 nuclear dyes. Images were obtained from a Nikon TE600 fluorescent microscope equipped with a SPOT camera and software or from z-stacks of cell clusters obtained on a Nikon Cl Laser Scanning Confocal microscope.
FACS analysis was done as follows to quantify the percentage of cells acquiring expression of Pax6 and Rx: Cells were dissociated with either trypsin or Accutase® (Chem icon), washed with a fluorescence-activated cell sorting (FACS) buffer (PBS, 0.1% sodium azide, and 2% donkey serum), and fixed with 0.1% paraformaldehyde for 10 minutes. Cells were then permeabilized with ice-cold 90% methanol for 20 minutes and incubated overnight in primary antibodies at a concentration of 1 μg of antibody per 1 million cells in FACS buffer. Antibody information is found in Table 2. Immunostaining was then completed with either donkey-anti-mouse or donkey-anti-rabbit Alexa 488 secondary antibodies for 2 hours, after which cells were washed with FACS buffer, and then sorted with a Becton Dickinson FACSCaliber. Data retrieved from the sorting was analyzed with CellQuest Pro software (Becton Dickinson).
To test this hypothesis, inhibitors of BMP signaling (Noggin or Dorsomorphin) and Wnt signaling (Dkk-1 or XAV-939) were added to cultures from days 2 to 4 of differentiation, a timeframe that was shown in Example 1 to be prior to the onset of neural specification based on Pax6 and Rax expression. […] This was further confirmed through immunocytochemistry, where cells treated with BMP and Wnt inhibitors were more likely to express the neural transcription factors Pax6 and Sox1 as well as eye field transcription factors Lhx2 and Six6.

For `Cc1c[nH]c(/C=C2\C(=O)Nc3ccccc32)c1CCC(=O)O` [SU5402], the “Pax6 and Rx expression” value (human ESC; 10 μM SU5402, day 10 of differentiation, RT-PCR) was “complete loss”, the “increase in Mitf gene expression” value (human ESC cultures) was 11.8 fold and the “reduction of Chx10 expression” value (human ESC cultures) was 15.9 fold.

B1: Wnt3A: recombinant Wnt3a, added to differentiating human ESC (protein, UniProt P56704 19-352, looked up)
Protein Wnt-3a: SYPIWWSLAVGPQYSSLGSQPILCASIPGLVPKQLRFCRNYVEIMPSVAEGIKIGIQECQHQFRGRRWNCTTVHDSLAIFGPVLDKATRESAFVHAIASAGVAFAVTRSCAEGTAAICGCSSRHQGSPGKGWKWGGCSEDIEFGGMVSREFADARENRPDARSAMNRHNNEAGRQAIASHMHLKCKCHGLSGSCEVKTCWWSQPDFRAIGDFLKDKYDSASEMVVEKHRESRGWVETLRPRYTYFKVPTERDLVYYEASPNFCEPNPETGSFGTRDRTCNVSSHGIDGCDLLCCGRGHNARAERRREKCRCVFHWCCYVSCQECTRVYDVHTCK
With B1 the “appearance of neuroepithelial colonies” value (human ESC) was “abolished” and the “expression of Pax6 and Rx” value (human ESC) was “abolished”.

B2: BMP4: recombinant BMP4, added to differentiating human ESC (protein, UniProt P12644 293-408, looked up)
Bone morphogenetic protein 4: SPKHHSQRARKKNKNCRRHSLYVDFSDVGWNDWIVAPPGYQAFYCHGDCPFPLADHLNSTNHAIVQTLVNSVNSSIPKACCVPTELSAISMLYLDEYDKVVLKNYQEMVVEGCGCR
In the case of B2, the “appearance of neuroepithelial colonies” value (human ESC) is reported as “abolished” and the “expression of Pax6 and Rx” value (human ESC) is reported as “abolished”.

B3: Activin: Activin-A added to vesicular neurosphere cultures to influence RPE fate (protein, UniProt P08476 311-426, looked up)
Inhibin beta A chain: GLECDGKVNICCKKQFFVSFKDIGWNDWIIAPSGYHANYCEGECPSHIAGTSGSSLSFHSTVINHYRMRGHSPFANLKSCCVPTKLRPMSMLYYDDGQNIIKKDIQNMIVEECGCS
modifications: Inhibin beta A chain
For B3, the “development of pigmented, RPE-like phenotype” value ([1]; Activin added upon isolation of vesicular neurospheres until a total of 40 days of differentiation) was “a subset of the neurospheres was capable of developing a pigmented phenotype”, the “expression of neural retinal-associated genes” value ([1]; Activin-A treated versus untreated vesicular spheres, qPCR) was “lower levels” and the “expression of RPE-specific genes such as RPE65” value ([1]; Activin-treated versus untreated cultures, qPCR) was “higher levels”.

B4: Dkk1: recombinant Dkk1, inhibitor of Wnt signaling (protein, UniProt O94907 32-266, looked up)
Dickkopf-related protein 1: TLNSVLNSNAIKNLPPPLGGAAGHPGSAVSAAPGILYPGGNKYQTIDNYQPYPCAEDEECGTDEYCASPTRGGDAGVQICLACRKRRKRCMRHAMCCPGNYCKNGICVSSDQNHFRGEIEETITESFGNDHSTLDGYSRRTTLSSKMYHTKGQEGSVCLRSSDCASGLCCARHFWSKICKPVLKEGQVCTKHRRKGSHGLEIFQRCYCGEGLSCRIQKDHHQASNSSRLHTCQRH
B4 was tested, and the “expression of Pax6” value (hiPSCs) was “restored” and the “expression of Chx10” value (hiPSCs) was “increased”.

B5: Noggin: recombinant Noggin, inhibitor of BMP signaling (protein, UniProt Q13253 28-232, looked up)
Noggin: QHYLHIRPAPSDNLPLVDLIEHPDPIFDPKEKDLNETLLRSLLGGHYDPGFMATSPPEDRPGGGGGAAGGAEDLAELDQLLRQRPSGAMPSEIKGLEFSEGLAQGKKQRLSKKLRRKLQMWLWSQTFCPVLYAWNDLGSRFWPRYVKVGSCFSKRSCSVPEGMVCKPSKSVHLTVLRWRCQRRGGQRCGWIPIQYPIISECKCSC
For B5, the “expression of Pax6” value (hiPSCs) was “restored” and the “expression of Chx10” value (hiPSCs) was “increased”.
